Data published in patent publication US20250002577A1 (ONCORESPONSE, published 2025).

Key:
human LILRB2 on cells [1] = biological target: T1, human LILRB2 on cells (human, UniProt Q8N423 22-597); test: flow cytometry, LILRB2-HEK293T cells, AF647-labelled antibody
T1 construct: whole, on cells; also called hLILRB2; LILRB2-HEK293T
Procedure: (§1) While LILRB2 expression is mostly restricted to myeloid cells, LILRB1 has a broader expression on immune cell subsets, including B cells, T cells and NK cells.
(§2) Frozen cells were removed from storage in vapor phase liquid nitrogen and thawed by gentle swirling in a water bath at 37° C., then resuspended in DMEM media with 10% FBS. Cells were placed in a 15 mL conical tube and centrifuged at 300×g for 5 min, then supernatant was removed. Cells were resuspended in DMEM+10% FBS at a cell density of 2×10⁵ cells/mL in a T75 flask for culturing, and incubated at 37° C., 5% CO₂ for 3 days before passaging. Cells were passaged when the cell density reached 1×10⁶ cell/mL. On the day of the assay, cells were centrifuged, then supernatant was removed. Cells were resuspended in Blocking Buffer B (FACS Buffer containing 10% FBS and 0.5 mg/mL human IgG1 (Athens Research, No. 16-16-090707-1M)+0.05% NaN₃, 5% (w/v)) in a 15 mL conical tube, then incubated at 4° C. for 30 min. […] Cells were incubated with antibodies at 4° C. for 1 h. Cells were washed twice in FACS Buffer (PBS containing 2 mM EDTA+1% FBS+0.05% NaN₃) and then stained with for 10 min with Zombie Violet™ fixable viability dye (BioLegend, No. 423114) at RT, washed with FACS Buffer and resuspend in 75 μL of FACS Buffer for acquisition on a BD FACSymphony™ or BD FACSCanto™ II flow cytometer (BD Biosciences), as described in Example 6.

[2] = biological target: T2, recombinant human LILRB1-His (human, UniProt Q8NHL6 24-458); test: MSD ELISA, coated antigen, purified IgG1
T2 construct: Bought protein; also called LILRB1 protein
Procedure: (§3) Recombinant human and cynomolgus LILRB1 proteins (R&D Systems, No. 8989-T2-050; ACROBiosystems, No. CDJ-C52H3) and recombinant human and cynomolgus LILRB2 proteins (ACROBiosystems, No. LI2-H5220; No. L12-C52H3) were diluted in PBS to 4 μg/mL and added to a multi-array 384-well high-binding plates (MSD, No. L21XA4) at 10 μL/well and incubated at 4° C. overnight. The plates were washed several times with Wash Buffer (0.05% Tween® 20 in PBS), using a microplate washer and then blocked with 70 μL/well of 5% BSA in PBS for 1 hour (h) at room temperature (RT) with shaking at 700 rpm. After blocking, 20 μL/well of anti-LILRB2/LILRB1 antibodies or isotype control were added to the plates, and the plates were sealed and incubated for 2 h at RT with shaking at 700 rpm. After primary antibody binding, plates were washed five times with 70 μL/well of Wash Buffer (0.05% Tween® 20 in PBS) using a microplate washer. Secondary detection antibody (SULFO-TAG™-labeled goat anti-human IgG antibody (MSD, No. R32AJ-1)) was diluted to 4 μg/mL in assay diluent (1% BSA in PBS) and 10 μL/well was added to plates and incubated at RT protected from light for 1 h, with shaking at 700 rpm. Following incubation, plates were washed five times with Wash Buffer, using a microplate washer. After removal of the final wash, 35 μL/well of MSD Gold Read Buffer B (MSD, No. R60AM-4) was added to all wells using a Multidrop combo washer/dispenser, and plates were read using MESO Sector 600MM instrument (MSD) within 5 minutes (min) after addition of Read Buffer. Signals as counts per minute (cpm) were recorded. EC₅₀ values were calculated using GraphPad Prism based on log concentration of the primary antibodies versus cpm values.

[3] = biological target: T3, recombinant human LILRB2-His (human, UniProt Q8N423 22-461, limits assumed); test: MSD ELISA, coated antigen, purified IgG1
T3 construct: Bought protein; also called LILRB2 protein
Procedure: as §3

human LILRB1 on cells [4] = biological target: T4, human LILRB1 on cells (human, UniProt Q8NHL6 24-650); test: flow cytometry, HEK293-6E transfectants
T4 construct: whole, on cells; also called hLILRB1; LILRB1-expressing 721.221 cells
Procedure: (§4) To determine that the parent chimera anti LILRB2/1 antibody specifically binds to LILRB2 and LILRB1 and not to other LILRB and LILRA family members, a cross-reactivity assay was performed. Cross-reactivity was assessed by antibody binding to transiently transfected HEK293-6E cells by flow cytometry. Binding was evaluated to HEK293-6E cells transiently transfected with human LILRB-1, -2, -3, -4, and 5 plasmids (Origene, Nos. RC219949, RC217935, RC211228, RC220932, RC206516) or to cells transiently transfected with human LILRA-1, -2, -4, -5, and -6 plasmids (Origene, Nos. RC210808, RC205626, RC220452, RC212310 RC212965). […] At a concentration of 1 μg/mL, no binding of B21A1 or the humanized variants to LILRB-3, -4, or -5 was observed (Table 7). Additionally, no binding to LILRA-1, -2, -4, -5, or -6 was observed, confirming the specificity of B21A1 and its humanized variants to LILRB1 and LILRB2 (Table 8).

[5] = biological target: T5, human LILRA5 on HEK293-6E cells (human, UniProt A6NI73 42-299); test: flow cytometry, HEK293-6E transfectants
T5 construct: whole, on cells; also called hLILRA5
Procedure: as §4

[6] = biological target: T6, human LILRB5 on HEK293-6E cells (human, UniProt O75023 24-590); test: flow cytometry, HEK293-6E transfectants
T6 construct: whole, on cells; also called hLILRB5
Procedure: as §4

[7] = biological target: T7, human LILRA2 on HEK293-6E cells (human, UniProt Q8N149 24-483); test: flow cytometry, HEK293-6E transfectants
T7 construct: whole, on cells; also called hLILRA2
Procedure: as §4

[8] = biological target: T8, human LILRA4 on HEK293-6E cells (human, UniProt P59901 24-499); test: flow cytometry, HEK293-6E transfectants
T8 construct: whole, on cells; also called hLILRA4
Procedure: as §4

[9] = biological target: T9, human LILRB3 on HEK293-6E cells (human, UniProt O75022 24-631); test: flow cytometry, HEK293-6E transfectants
T9 construct: whole, on cells; also called hLILRB3
Procedure: as §4

[10] = biological target: T10, human LILRA1 on HEK293-6E cells (human, UniProt O75019 17-489); test: flow cytometry, HEK293-6E transfectants
T10 construct: whole, on cells; also called hLILRA1
Procedure: as §4

[11] = biological target: T11, human LILRB4 on HEK293-6E cells (human, UniProt Q8NHJ6 22-448); test: flow cytometry, HEK293-6E transfectants
T11 construct: whole, on cells; also called hLILRB4
Procedure: as §4

human LILRB2 on cells [12] = biological target: T1, human LILRB2 on cells; test: flow cytometry, HEK293-6E transfectants
Procedure: as §4

[13] = biological target: T12, human LILRA6 on HEK293-6E cells (human, UniProt Q6PI73 24-481); test: flow cytometry, HEK293-6E transfectants
T12 construct: whole, on cells; also called hLILRA6
Procedure: as §4

human LILRB1 on cells [14] = biological target: T4, human LILRB1 on cells; test: flow cytometry, 721.221 cells, AF647-labelled antibody
Procedure: as §1, §2

T10 sequence (O75019 17-489): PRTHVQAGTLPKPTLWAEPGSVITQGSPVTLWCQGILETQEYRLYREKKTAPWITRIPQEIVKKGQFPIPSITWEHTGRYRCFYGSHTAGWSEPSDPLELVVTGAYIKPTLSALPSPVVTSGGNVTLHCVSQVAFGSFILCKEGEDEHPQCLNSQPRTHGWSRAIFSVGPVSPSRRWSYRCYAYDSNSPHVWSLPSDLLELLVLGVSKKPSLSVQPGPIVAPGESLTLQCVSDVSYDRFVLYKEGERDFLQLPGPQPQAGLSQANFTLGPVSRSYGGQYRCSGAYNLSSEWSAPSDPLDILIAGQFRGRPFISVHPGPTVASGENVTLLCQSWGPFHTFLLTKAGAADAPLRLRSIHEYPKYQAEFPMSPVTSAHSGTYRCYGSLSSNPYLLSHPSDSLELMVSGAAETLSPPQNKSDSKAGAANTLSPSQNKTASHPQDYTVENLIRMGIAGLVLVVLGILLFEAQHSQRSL
T8 sequence (P59901 24-499): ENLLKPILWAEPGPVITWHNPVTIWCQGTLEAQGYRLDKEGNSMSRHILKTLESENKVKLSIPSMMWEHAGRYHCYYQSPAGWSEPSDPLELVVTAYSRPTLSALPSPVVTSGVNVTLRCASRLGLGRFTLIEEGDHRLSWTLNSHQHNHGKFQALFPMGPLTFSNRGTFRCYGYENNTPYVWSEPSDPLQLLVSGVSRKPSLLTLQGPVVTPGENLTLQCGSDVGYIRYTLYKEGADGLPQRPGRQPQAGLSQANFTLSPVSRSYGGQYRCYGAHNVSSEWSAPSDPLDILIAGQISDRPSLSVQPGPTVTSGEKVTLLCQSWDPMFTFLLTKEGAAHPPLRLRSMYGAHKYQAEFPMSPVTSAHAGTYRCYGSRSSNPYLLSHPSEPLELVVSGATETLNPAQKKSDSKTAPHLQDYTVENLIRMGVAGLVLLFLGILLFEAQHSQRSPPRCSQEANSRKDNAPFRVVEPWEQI
T3 sequence (Q8N423 22-461 limits assumed): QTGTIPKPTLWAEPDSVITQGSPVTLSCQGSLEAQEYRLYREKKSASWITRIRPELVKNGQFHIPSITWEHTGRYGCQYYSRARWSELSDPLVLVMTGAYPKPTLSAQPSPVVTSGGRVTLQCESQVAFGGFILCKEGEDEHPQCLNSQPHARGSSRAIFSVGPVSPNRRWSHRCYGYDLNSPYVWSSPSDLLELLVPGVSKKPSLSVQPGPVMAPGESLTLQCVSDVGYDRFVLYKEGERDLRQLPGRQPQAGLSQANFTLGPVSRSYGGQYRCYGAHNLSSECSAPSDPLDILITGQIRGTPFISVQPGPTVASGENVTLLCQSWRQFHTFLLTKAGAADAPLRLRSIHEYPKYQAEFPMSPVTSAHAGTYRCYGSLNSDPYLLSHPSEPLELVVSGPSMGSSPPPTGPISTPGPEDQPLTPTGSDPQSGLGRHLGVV
T2 sequence (Q8NHL6 24-458 limits assumed): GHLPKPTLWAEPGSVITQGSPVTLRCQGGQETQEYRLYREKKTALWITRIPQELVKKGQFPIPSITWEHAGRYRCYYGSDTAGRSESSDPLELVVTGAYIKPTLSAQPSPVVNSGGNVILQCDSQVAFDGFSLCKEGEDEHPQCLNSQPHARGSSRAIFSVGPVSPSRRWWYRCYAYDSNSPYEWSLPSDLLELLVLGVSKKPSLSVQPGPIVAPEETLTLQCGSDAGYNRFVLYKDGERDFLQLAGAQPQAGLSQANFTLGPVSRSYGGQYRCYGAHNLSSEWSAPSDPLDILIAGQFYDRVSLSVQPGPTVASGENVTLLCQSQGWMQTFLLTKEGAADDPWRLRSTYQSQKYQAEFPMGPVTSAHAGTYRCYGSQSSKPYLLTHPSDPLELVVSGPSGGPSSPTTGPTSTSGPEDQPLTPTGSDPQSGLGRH
T1 sequence (Q8N423 22-597): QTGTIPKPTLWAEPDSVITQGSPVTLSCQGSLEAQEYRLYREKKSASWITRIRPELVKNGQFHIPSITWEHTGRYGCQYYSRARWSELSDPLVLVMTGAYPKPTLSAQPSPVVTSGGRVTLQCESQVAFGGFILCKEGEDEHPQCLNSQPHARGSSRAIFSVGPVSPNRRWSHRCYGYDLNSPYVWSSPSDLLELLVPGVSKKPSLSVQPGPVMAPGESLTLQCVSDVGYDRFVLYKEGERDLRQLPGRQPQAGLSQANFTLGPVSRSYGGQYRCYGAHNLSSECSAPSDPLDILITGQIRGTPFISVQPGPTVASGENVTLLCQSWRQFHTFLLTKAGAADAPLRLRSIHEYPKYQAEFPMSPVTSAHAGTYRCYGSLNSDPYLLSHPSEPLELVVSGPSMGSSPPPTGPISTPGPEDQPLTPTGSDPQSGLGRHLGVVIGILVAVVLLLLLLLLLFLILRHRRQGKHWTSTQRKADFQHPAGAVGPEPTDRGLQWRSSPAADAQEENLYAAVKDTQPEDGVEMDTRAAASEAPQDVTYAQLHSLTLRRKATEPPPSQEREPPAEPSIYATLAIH
T7 sequence (Q8N149 24-483): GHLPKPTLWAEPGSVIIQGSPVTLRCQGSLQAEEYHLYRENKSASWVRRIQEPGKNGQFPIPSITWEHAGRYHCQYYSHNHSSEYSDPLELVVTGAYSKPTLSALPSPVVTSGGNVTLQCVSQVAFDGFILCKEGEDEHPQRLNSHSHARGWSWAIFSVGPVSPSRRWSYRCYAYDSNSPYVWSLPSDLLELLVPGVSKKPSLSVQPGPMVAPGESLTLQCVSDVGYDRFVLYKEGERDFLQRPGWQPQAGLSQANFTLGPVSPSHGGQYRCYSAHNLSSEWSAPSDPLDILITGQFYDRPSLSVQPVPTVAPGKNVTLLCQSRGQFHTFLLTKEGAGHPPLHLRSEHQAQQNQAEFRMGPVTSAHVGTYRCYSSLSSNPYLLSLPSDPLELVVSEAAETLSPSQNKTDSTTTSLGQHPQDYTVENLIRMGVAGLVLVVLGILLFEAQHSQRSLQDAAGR
T9 sequence (O75022 24-631): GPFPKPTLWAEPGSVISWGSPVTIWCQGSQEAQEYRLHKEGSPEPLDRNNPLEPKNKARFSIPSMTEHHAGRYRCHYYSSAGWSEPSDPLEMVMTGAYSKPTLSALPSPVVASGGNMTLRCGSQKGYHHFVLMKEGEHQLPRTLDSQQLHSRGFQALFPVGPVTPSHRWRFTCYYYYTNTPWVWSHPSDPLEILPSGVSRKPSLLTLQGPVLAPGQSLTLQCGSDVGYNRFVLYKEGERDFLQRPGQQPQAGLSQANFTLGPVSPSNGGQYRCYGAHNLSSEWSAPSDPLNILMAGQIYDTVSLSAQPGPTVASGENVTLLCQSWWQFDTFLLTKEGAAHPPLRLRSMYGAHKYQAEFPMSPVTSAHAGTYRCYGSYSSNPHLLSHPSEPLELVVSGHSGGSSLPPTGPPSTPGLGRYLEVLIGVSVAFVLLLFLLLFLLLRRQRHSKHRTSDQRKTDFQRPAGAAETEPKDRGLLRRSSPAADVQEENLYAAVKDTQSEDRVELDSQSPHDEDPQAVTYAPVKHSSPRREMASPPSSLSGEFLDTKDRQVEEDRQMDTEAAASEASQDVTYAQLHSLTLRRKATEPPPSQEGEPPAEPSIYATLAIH
T6 sequence (O75023 24-590): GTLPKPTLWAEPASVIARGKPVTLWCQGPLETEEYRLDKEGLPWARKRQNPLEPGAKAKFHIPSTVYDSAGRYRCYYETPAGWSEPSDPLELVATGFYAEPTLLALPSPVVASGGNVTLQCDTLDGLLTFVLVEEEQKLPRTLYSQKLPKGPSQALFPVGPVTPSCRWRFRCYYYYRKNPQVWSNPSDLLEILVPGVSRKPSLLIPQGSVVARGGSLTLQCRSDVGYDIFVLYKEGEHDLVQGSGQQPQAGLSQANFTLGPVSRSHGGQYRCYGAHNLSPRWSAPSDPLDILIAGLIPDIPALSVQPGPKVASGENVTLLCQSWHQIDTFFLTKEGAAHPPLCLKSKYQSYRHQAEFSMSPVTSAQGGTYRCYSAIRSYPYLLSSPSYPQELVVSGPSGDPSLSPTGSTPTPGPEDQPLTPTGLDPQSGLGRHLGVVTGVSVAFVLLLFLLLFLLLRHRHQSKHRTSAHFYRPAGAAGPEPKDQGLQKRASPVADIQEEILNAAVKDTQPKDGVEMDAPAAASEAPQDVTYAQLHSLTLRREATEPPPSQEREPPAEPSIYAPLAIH
T4 sequence (Q8NHL6 24-650): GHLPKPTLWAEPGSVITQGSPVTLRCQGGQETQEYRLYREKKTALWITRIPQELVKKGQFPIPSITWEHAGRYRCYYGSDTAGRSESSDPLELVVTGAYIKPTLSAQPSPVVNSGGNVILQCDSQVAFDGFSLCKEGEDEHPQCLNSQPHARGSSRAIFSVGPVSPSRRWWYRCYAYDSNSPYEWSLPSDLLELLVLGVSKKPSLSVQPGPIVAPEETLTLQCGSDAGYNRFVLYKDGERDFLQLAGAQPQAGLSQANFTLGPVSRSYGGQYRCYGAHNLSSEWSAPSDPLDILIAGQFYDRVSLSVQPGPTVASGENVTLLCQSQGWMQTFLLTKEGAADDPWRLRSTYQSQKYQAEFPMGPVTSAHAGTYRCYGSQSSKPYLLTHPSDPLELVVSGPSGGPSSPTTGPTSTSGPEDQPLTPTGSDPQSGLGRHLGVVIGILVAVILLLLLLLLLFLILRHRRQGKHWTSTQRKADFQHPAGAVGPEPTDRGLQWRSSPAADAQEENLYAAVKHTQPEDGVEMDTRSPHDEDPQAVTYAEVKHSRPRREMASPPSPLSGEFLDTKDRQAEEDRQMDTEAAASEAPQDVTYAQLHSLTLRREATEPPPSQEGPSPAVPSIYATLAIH
T5 sequence (A6NI73 42-299): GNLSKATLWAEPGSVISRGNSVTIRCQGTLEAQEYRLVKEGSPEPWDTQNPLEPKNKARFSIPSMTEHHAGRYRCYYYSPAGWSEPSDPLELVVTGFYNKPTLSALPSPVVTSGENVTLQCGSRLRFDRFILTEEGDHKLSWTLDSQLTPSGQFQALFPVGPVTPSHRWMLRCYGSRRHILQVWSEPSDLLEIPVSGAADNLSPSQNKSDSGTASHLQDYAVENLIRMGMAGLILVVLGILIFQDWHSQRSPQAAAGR

B1: B21H1-15 (antibody, human IgG1, kappa)
heavy: not shown
light: DIQMTQTPSTVEASVGGTVTITCQASGNIYSFLAWYQQKPGQPPKLLIYTASNLETGVPSRFSGSGSGTEYTLTISGLQSDDAATYYCLGGLYSSDVSYAFGGGTEVVVKRTVAAPSVFIFPPSDEQLKSGTASVVCLLNNFYPREAKVQWKVDNALQSGNSQESVTEQDSKDSTYSLSSTLTLSKADYEKHKVYACEVTHQGLSSPVTKSFNRGEC
notes: humanized IgG1/kappa, VH1+VL5
- EC50 (human LILRB2 on cells [1]): 0.96 ng/mL
- EC50 [2]: 5.63 ng/mL
- EC50 [3]: 21.6 ng/mL
- MFI (human LILRB1 on cells [4]): 1140 MFI
- MFI [5]: 77.8 MFI
- binding result [5]: no binding (tested: 1 µg/mL)
- MFI [6]: 93.8 MFI
- binding result [6]: no binding (tested: 1 µg/mL)
- MFI [7]: 28.9 MFI
- binding result [7]: no binding (tested: 1 µg/mL)
- MFI [8]: 136 MFI
- binding result [8]: no binding (tested: 1 µg/mL)
- MFI [9]: 98.7 MFI
- binding result [9]: no binding (tested: 1 µg/mL)
- MFI [10]: 290 MFI
- binding result [10]: no binding (tested: 1 µg/mL)
- MFI [11]: 29.9 MFI
- binding result [11]: no binding (tested: 1 µg/mL)
- MFI (human LILRB2 on cells [12]): 5700 MFI
- MFI [13]: 147 MFI
- binding result [13]: no binding (tested: 1 µg/mL)

B2: B21H1-12 (antibody, human IgG1, kappa)
heavy: not shown
light: DIQMTQSPSSLSASVGDRVTITCQASGNIYSFLAWYQQKPGKVPKLLIYTASNLETGVPSRFSGSGSGTDYTLTISSLQSEDAATYYCLGGLYSSDVSYAFGGGTKVVIKRTVAAPSVFIFPPSDEQLKSGTASVVCLLNNFYPREAKVQWKVDNALQSGNSQESVTEQDSKDSTYSLSSTLTLSKADYEKHKVYACEVTHQGLSSPVTKSFNRGEC
notes: humanized IgG1/kappa, VH1+VL2
- EC50 (human LILRB2 on cells [1]): 1.02 ng/mL
- EC50 [2]: 6.14 ng/mL
- EC50 [3]: 17.4 ng/mL
- MFI (human LILRB1 on cells [4]): 963 MFI
- MFI [5]: 72.8 MFI
- binding result [5]: no binding (tested: 1 µg/mL)
- MFI [6]: 87.8 MFI
- binding result [6]: no binding (tested: 1 µg/mL)
- MFI [7]: 26.6 MFI
- binding result [7]: no binding (tested: 1 µg/mL)
- MFI [8]: 112 MFI
- binding result [8]: no binding (tested: 1 µg/mL)
- MFI [9]: 82.2 MFI
- binding result [9]: no binding (tested: 1 µg/mL)
- MFI [10]: 276 MFI
- binding result [10]: no binding (tested: 1 µg/mL)
- MFI [11]: 27.3 MFI
- binding result [11]: no binding (tested: 1 µg/mL)
- MFI (human LILRB2 on cells [12]): 6210 MFI
- MFI [13]: 151 MFI
- binding result [13]: no binding (tested: 1 µg/mL)
- EC50 (human LILRB1 on cells [14]): 41.7 ng/mL

B3: B21H1-42 (antibody, human IgG1, kappa)
heavy: not shown
light: DIQMTQSPSSLSASVGDRVTITCQASGNIYSFLAWYQQKPGKVPKLLIYTASNLETGVPSRFSGSGSGTDYTLTISSLQSEDAATYYCLGGLYSSDVSYAFGGGTKVVIKRTVAAPSVFIFPPSDEQLKSGTASVVCLLNNFYPREAKVQWKVDNALQSGNSQESVTEQDSKDSTYSLSSTLTLSKADYEKHKVYACEVTHQGLSSPVTKSFNRGEC
notes: humanized IgG1/kappa, VH4+VL2
- EC50 (human LILRB2 on cells [1]): 1.25 ng/mL
- EC50 [2]: 9.19 ng/mL
- EC50 [3]: 28.4 ng/mL
- MFI (human LILRB1 on cells [4]): 1160 MFI
- MFI [5]: 74.6 MFI
- binding result [5]: no binding (tested: 1 µg/mL)
- MFI [6]: 92.8 MFI
- binding result [6]: no binding (tested: 1 µg/mL)
- MFI [7]: 27.1 MFI
- binding result [7]: no binding (tested: 1 µg/mL)
- MFI [8]: 134 MFI
- binding result [8]: no binding (tested: 1 µg/mL)
- MFI [9]: 97 MFI
- binding result [9]: no binding (tested: 1 µg/mL)
- MFI [10]: 345 MFI
- binding result [10]: no binding (tested: 1 µg/mL)
- MFI [11]: 30.9 MFI
- binding result [11]: no binding (tested: 1 µg/mL)
- MFI (human LILRB2 on cells [12]): 5630 MFI
- MFI [13]: 147 MFI
- binding result [13]: no binding (tested: 1 µg/mL)

B4: B21H1-13 (antibody, human IgG1, kappa)
heavy: not shown
light: DIVMTQSPSSVSASVGDRVTITCQASGNIYSFLAWYQQKPGKAPKLLIYTASNLETGVPSRFSGSGSGTDFTLTISSLQPEDFATYYCLGGLYSSDVSYAFGGGTKVVIKRTVAAPSVFIFPPSDEQLKSGTASVVCLLNNFYPREAKVQWKVDNALQSGNSQESVTEQDSKDSTYSLSSTLTLSKADYEKHKVYACEVTHQGLSSPVTKSFNRGEC
notes: humanized IgG1/kappa, VH1+VL3
- EC50 (human LILRB2 on cells [1]): 2.23 ng/mL
- EC50 [2]: 5.45 ng/mL
- EC50 [3]: 20.3 ng/mL
- MFI (human LILRB1 on cells [4]): 1000 MFI
- MFI [5]: 75.7 MFI
- binding result [5]: no binding (tested: 1 µg/mL)
- MFI [6]: 89.8 MFI
- binding result [6]: no binding (tested: 1 µg/mL)
- MFI [7]: 25.8 MFI
- binding result [7]: no binding (tested: 1 µg/mL)
- MFI [8]: 130 MFI
- binding result [8]: no binding (tested: 1 µg/mL)
- MFI [9]: 84.7 MFI
- binding result [9]: no binding (tested: 1 µg/mL)
- MFI [10]: 201 MFI
- binding result [10]: no binding (tested: 1 µg/mL)
- MFI [11]: 29.1 MFI
- binding result [11]: no binding (tested: 1 µg/mL)
- MFI (human LILRB2 on cells [12]): 5370 MFI
- MFI [13]: 142 MFI
- binding result [13]: no binding (tested: 1 µg/mL)
